Laboratory results published in US20190367619A1 (ARGENX, published 2019).

T1: human galectin-10-His (recombinant human galectin-10 with TEV-cleavable N-terminal His-tag) (human)
T1 construct: SEC-MALLS: dimer in solution; also called Gal10-His; humanGal10-His
T1 chain: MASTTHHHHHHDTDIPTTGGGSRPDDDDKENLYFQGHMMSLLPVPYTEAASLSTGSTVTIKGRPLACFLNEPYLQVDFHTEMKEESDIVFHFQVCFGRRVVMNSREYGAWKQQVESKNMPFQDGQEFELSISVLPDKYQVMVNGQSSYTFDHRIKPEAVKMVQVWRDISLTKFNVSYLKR

T2: human galectin-10 as coated in ELISA (soluble galectin-10; tag not given) (human, UniProt Q05315 1-142, limits assumed)
T2 construct: also called coated galectin-10; Gal10
T2 sequence: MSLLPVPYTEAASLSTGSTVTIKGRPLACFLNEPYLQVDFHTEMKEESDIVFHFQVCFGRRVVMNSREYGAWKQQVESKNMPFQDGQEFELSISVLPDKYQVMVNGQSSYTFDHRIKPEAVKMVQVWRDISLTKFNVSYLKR

B1: 4E08 Fab (Fab, V domains shown)
VH: QVQRQESGPGLVKPSQTLSLTCTVSGGSITTSYYAWSWIRQPPGKGLEWMGVIASDGSTYYSPSLKSRTSISRDTSKNQFSLQLSSVTPEDTAVYYCALYIRGSSWSGWSAYDYWGQGTQVTVSS
VL: QPVLNQPSAVSVSLGQTARITCQGGNFGYYYGSWYQQKPGQAPVLVIYKDSERPSGIPERFSGSSSGGTATLTISRAQAEDEADYYCQSADSSDNPVFGGGTHLTVL
notes: VH on human CH1 constant domain (with part of the hinge region), VL on human lambda constant domain; also called 4E8; Fab 4E8
B2: 6F05 Fab (Fab, V domains shown)
VH: QLQLVESGGGLVQPGGSLRLSCAASGFTFSSYAMSWVRQAPGKGLEWVSAINSGGGSTSYADSVKGRFTISRDNAKNTLYLQMNSLKPEDTAVYYCATPGDRLWYYRYDYWGQGTQVTVSS
VL: QAGLTQPPSVSGTLGKAVTISCAGTSSDIGYGNYVSWYQQLPGTAPKLLIYKVSRRASGVPDRFSGSKSGNTASLSISGLQSEDEADYYCASYRYRNNVVFGGGTHLTVL
notes: VH on human CH1 constant domain (with part of the hinge region), VL on human lambda constant domain; also called 6F5; Fab 6F5
B3: 1D11 Fab (Fab, V domains shown)
VH: QVQLVESGGGLVQPGGSLRLSCAASGFTFDDYAMSWVRQAPGKGLEWVSGISWNGGSTYYAESMKGRFTISRDNAKNTLYLQMNSLKSEDTAVYYCAKDRNLGYRLGYPYDYWGQGTQVTVSS
VL: QSVLTQPPSVSGSPGETVTISCAGTSSDVGYGNYVSWYQQLPGMAPRLLIYEVNKRASGITDRFSGSKSGNTASLTISGLQSEDEGDYYCASYRSSNNAVFGGGTHLTVL
notes: VH on human CH1 constant domain (with part of the hinge region), VL on human lambda constant domain; also called Fab 1D11; Fab-1D11
B4: 1C09 Fab (Fab, V domains shown)
VH: QVQLVESGPGLVKPSQTLSLTCTVSGGSITTNSYYWSWIRQPPGKGLEWMGAIAYSGSTYYSPSLKSRTSISRDTSKNQFTLHLSSVTPEDTAVYYCARRPNWYRALDAWGQGTLVTVSS
VL: NFMLTQPSAVSVSLGQTARITCQGANLGRYYGIWYQQKPGQAPVQVIYGDSNRPSGIPERFSGSSSGGTATLTISGAQAEDEADYYCQSYESSTSPVFGGGTHLTVL
notes: VH on human CH1 constant domain (with part of the hinge region), VL on human lambda constant domain; also called 1C9; Fab 1C09
B5: scFv 6B06 (periplasmic extract, Myc-tagged) (scFv, not shown: small tags and cut ends)
scFv: QVQRQESGPGLVKPSQTLSLTCTVSGGSITTNYYSWSWIRQPPGKGLEWIGYIAYSGSTSYSPSLKSRTSISRDTSNNQFSLQLSSVTPEDTAVYYCARSRSSPTTFGMDYWGKGTLVTVSSGGGGSGGGGSGGGGSSSALTQPSAVSVSLGQTARITCQGGNFGRYYVSWYTQKPGQAPVLVIYQDSERPTGIPERFSGSSSGDTATLTISGAQAEDEADYYCQSGTSSDNIVFGGGTHLTVL
B6: scFv 6E10 (periplasmic extract, Myc-tagged) (scFv, not shown: small tags and cut ends)
scFv: QLQLVESGGGLVQPGGSLRLSCAASGFTFSSYWMYWVRQAPGKGLEWVSAINTGGGSTYYADSVKGRFTISRDNAKNTLYLQMNSLKPEDTALYYCARAGSGVAGTGYDYWGQGTQVTVSSGGGGSGGGGSGGGGSQPVLNQPSAVSVSLGQTARITCQGGNFGYYYVSWYQQKPGQAPVLVIYRDSGRPSGIPERFSGSSSGDTATLTISGAQAEDEADYYCQSGSSSDNAVFGGGTHLTVL
notes: also called 6E010
B7: scFv 6A08 (periplasmic extract, Myc-tagged) (scFv, not shown: small tags and cut ends)
scFv: QVQLVESGGGLVQPGGSLRLSCAASGFTFSSYAMSWVRQAPGKGPEWVSAINRGGGSTYYADSVKGRFTISRDNAKNTLYLQMNSLKPEDAAVYYCATPGDRLWYYRYDYWGQGAQVTVSSGGGGSGGGGSGGGGSQTVVTQEPSLSVSPGGTVTLTCGLSSGSVTSSNYPGWYQQTPGQAPRLLIYNTNSRYSGVPNRFSGSISGNKAALIISGAQPEDEADYHCALNRVRGTYRVFGGGTHLTVL
B8: scFv 6F06 (periplasmic extract, Myc-tagged) (scFv, not shown: small tags and cut ends)
scFv: QVQLVESGGGLVQPGGSLRLSCAASEFTFSRYSMSWVRQAPGKGLEWVSTINSGGGSTSYVDSVKGRFTISRDNAKNTLYLQMNSLKPEDTAVYYCTKSQGGISFSTQYGMDYWGKGTLVTVSSGGGGSGGGGSGGGGSNFMLTQPSAVSVSLGQTARITCQGGNFGRYYANWYQQKPGQAPVLVIYKDSERPSGIPERFSGSSSGDTATLTISGAQAEDESDYYCQSGSVSDNAVFGGGTHLAVL

Target: T1, human galectin-10-His (recombinant …)
Assay: ELISA, Fab on coated galectin-10-His

Row | Bmax | EC50 | Binder
1 | 0.7 OD | 25.6 nM | B1
2 | 0.8 OD | 26.7 nM | B2
3 | 0.9 OD | 1.6 nM | B3
4 | 1 OD | 1.9 nM | B4

Target: T1, human galectin-10-His (recombinant …)
Assay: BLI OctetRed96, Fab on galectin-10-His

Row | Kd | koff | Binder
5 | 147 nM | 0.00248 s⁻¹ | B1
6 | 188 nM | 0.00356 s⁻¹ | B2
7 | 10.7 nM | 0.000299 s⁻¹ | B3
8 | 13.4 nM | 0.000383 s⁻¹ | B4

Target: T2, human galectin-10 as coated in ELISA …
Assay: ELISA, scFv periplasmic extract on coated soluble galectin-10, anti-Myc-HRP

Row | ELISA binding (OD values) | Binder
9 | 3.7 OD | B5
10 | 3.7 OD | B6
11 | 3.5 OD | B7
12 | 3.8 OD | B8

Target: T1, human galectin-10-His (recombinant …)
Assay: BLI Octet RED96, galectin-10-His on anti-Penta-His tips, scFv periplasmic extract 1/10
Experimental: Briefly, galectin-10-His tagged diluted in Kinetic Buffer was captured on Anti-Penta His 1K sensor tips until an immobilization level of 1 nm was reached. Then, diluted periplasmic extracts (1/10) were applied and association/dissociation to immobilized galectin-10-His was measured using the ForteBio Data analysis 9.0 software (subtraction of the reference Tips, 1.1 binding model). During the screening, only the dissociation (off-rate) of the scFv can be determined since the effective concentration of the scFv is unknown and can vary a lot from clone to clone. […] Therefore, taking into consideration the ELISA and BLI data, a new panel of lead scFvs was selected.

Row | koff | Binder
13 | 0.0058 s⁻¹ | B5
14 | 0.016 s⁻¹ | B6
15 | 0.0082 s⁻¹ | B7
16 | 0.0057 s⁻¹ | B8
